In patent publication US20230029835A1 (KEYMED BIOSCIENCES, published 2023):
Like-named read-outs stand apart in the source and are kept apart here.

T1: Cynomolgus macaques TSLP recombinant protein (Cynomolgus macaques, UniProt Q969D9 29-159 (human entry), limits assumed, biotinylated in the blocking assays (sites not given))
T1 construct: also called cyTSLP; biotinylated Cynomolgus macaques TSLP protein
T1 chain: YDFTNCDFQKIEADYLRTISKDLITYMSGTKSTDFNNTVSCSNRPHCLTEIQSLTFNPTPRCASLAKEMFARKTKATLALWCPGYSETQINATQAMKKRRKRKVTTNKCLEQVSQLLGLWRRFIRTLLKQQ


Experiments:
[1] = target: T2, human TSLP recombinant protein (human, UniProt Q969D9 29-159, biotinylated in the blocking and cell-binding assays (sites not given)); assay: cell-based or functional assay
[2] = target: T2, human TSLP recombinant protein; assay: cell-based or functional assay; remark: listed apart in the source
[3] = target: T2, human TSLP recombinant protein; assay: ELISA on coated human TSLP
Experimental: (§1) The plate was washed three times with PBS and blocked by adding 200 μL/well of PBS containing 2% skim milk for 1 hour. […] After washing with PBST and PBS three times, respectively, 100 μL of TMB substrate was added to each well for color development at 37° C. for 10 minutes, the reaction was terminated with 50 μL of 2M sulfuric acid solution per well, and the absorbance was read at a wavelength of 450 nm.

[4] = target: T1, Cynomolgus macaques TSLP recombinant …; assay: ELISA on coated cynomolgus TSLP
Experimental: as §1

[5] = target: T2, human TSLP recombinant protein; assay: competition ELISA, biotin-human TSLP to coated human TSLPR-Fc
Experimental: (§2) Human TSLPR recombinant protein was coated onto a 96-well microtiter plate at 1 μg/mL in carbonate buffer overnight at 4° C. The plate was washed three times with PBS and blocked by adding 200 μL/well of PBS containing 2% skim milk for 1 hour. […] The 96-well plate was washed three times with PBS, and 100 μL of the incubated mixture was added to each well and incubated for 1 hour at room temperature. After washing with PBST and PBS three times, respectively, 100 μL of SA-HRP was added to each well and incubated at room temperature for 30 minutes in the dark. After washing with PBST and PBS three times, respectively, 100 μL of TMB substrate was added to well for color development at 37° C. for 10 minutes, the reaction was terminated with 50 μL of 2M sulfuric acid solution per well, and the absorbance was read at a wavelength of 450 nm.

[6] = target: T2, human TSLP recombinant protein; assay: SPR BIAcore T200, antibody captured on Protein A, human TSLP injected
Experimental: (§3) After each injection cycle, the Protein A chip surface was regenerated with regeneration buffer 10 mM glycine (pH 2.0) at a flow rate of 30 μL/min. The association rate constant (ka) and dissociation rate constant (kd) and equilibrium dissociation constant KD were analyzed by fitting the resulting data to a Langmuir 1:1 kinetics theoretical model using BIAevaluation software.

[7] = target: T1, Cynomolgus macaques TSLP recombinant …; assay: competition ELISA, biotin-cynomolgus TSLP to coated cynomolgus TSLPR-Fc
Experimental: Cynomolgus macaques TSLPR recombinant protein was coated onto a 96-well microtiter plate at 1 g/mL in carbonate buffer overnight at 4° C. The plate was washed three times with PBS and blocked by adding 200 μL/well of PBS containing 2% skim milk for 1 hour. […] The 96-well plate was washed three times with PBS, and 100 μL of the incubated mixture was added to each well and incubated for 1 hour at room temperature. After washing with PBST and PBS three times, respectively, 100 μL of SA-HRP was added to each well and incubated at room temperature for 30 minutes in the dark. After washing with PBST and PBS three times, respectively, 100 μL of TMB substrate was added to well for color development at 37° C. for 10 minutes, the reaction was terminated with 50 μL of 2M sulfuric acid solution per well, and the absorbance was read at a wavelength of 450 nm.

[8] = target: T2, human TSLP recombinant protein; assay: flow cytometry competition, biotin-human TSLP to Ba/F3-hTSLPR-IL7Rα cells
Experimental: Ba/F3-hTSLPR-IL7Rα cells were washed three times with PBS, centrifuged at 300 g for 3 minutes, and blocked with 3% BSA/PBS for 30 minutes. The cells were resuspended and added to a 96-well U-plate at 5×10⁴/well.

[9] = target: T1, Cynomolgus macaques TSLP recombinant …; assay: SPR BIAcore T200, antibody captured on Protein A, cynomolgus TSLP injected
Experimental: as §3

[10] = target: T2, human TSLP recombinant protein; assay: cell-based or functional assay; remark: listed apart in the source
[11] = target: T2, human TSLP recombinant protein; assay: cell-based or functional assay; remark: listed apart in the source
[12] = target: T2, human TSLP recombinant protein; assay: ELISA on coated human TSLP; remark: listed apart in the source
Experimental: as §1

[13] = target: T1, Cynomolgus macaques TSLP recombinant …; assay: ELISA on coated cynomolgus TSLP
Experimental: as §1

[14] = target: T2, human TSLP recombinant protein; assay: competition ELISA, biotin-human TSLP to coated human TSLPR-Fc; remark: listed apart in the source
Experimental: as §2

[15] = target: T2, human TSLP recombinant protein; assay: SPR BIAcore T200, antibody captured on Protein A, human TSLP injected; remark: listed apart in the source
Experimental: After each injection cycle, the Protein A chip surface was regenerated with regeneration buffer 10 mM glycine (pH 2.0) at a flow rate of 30 μL/min.
The association rate constant (ka) and dissociation rate constant (kd) and equilibrium dissociation constant KD were analyzed by fitting the resulting data to a Langmuir 1:1 kinetics theoretical model using BIAevaluation software.

[16] = target: T1, Cynomolgus macaques TSLP recombinant …; assay: competition ELISA, biotin-cynomolgus TSLP to coated cynomolgus TSLPR-Fc
Experimental: Cynomolgus macaques TSLPR recombinant protein was coated onto a 96-well microtiter plate at 1 μg/mL in carbonate buffer overnight at 4° C. The plate was washed three times with PBS and blocked by adding 200 μL/well of PBS containing 2% skim milk for 1 hour. […] The 96-well plate was washed three times with PBS, and 100 μL of the incubated mixture was added to each well and incubated for 1 hour at room temperature. After washing with PBST and PBS three times, respectively, 100 μL of SA-HRP was added to each well and incubated at room temperature for 30 minutes in the dark. After washing with PBST and PBS three times, respectively, 100 μL of TMB substrate was added to well for color development at 37° C. for 10 minutes, the reaction was terminated with 50 μL of 2M sulfuric acid solution per well, and the absorbance was read at a wavelength of 450 nm.

Binder	Inhibition of Cell Proliferation IC50 [1] [pM]	STAT5 signal inhibition IC50 [2] [pM]	EC50 [3] [pM]	EC50 [4] [pM]	IC50 [5] [pM]	Kd [6] [pM]	koff [6] [s⁻¹]	kon [6] [M⁻¹ s⁻¹]	IC50 [7] [pM]	IC50 [8] [pM]	Kd [9] [pM]	Inhibition IC50 of cell proliferation [10] [pM]	Inhibition IC50 of STAT5 reporter gene [11] [pM]	EC50 [12] [pM]	EC50 [13] [pM]	IC50 [14] [pM]	Kd [15] [pM]	koff [15] [s⁻¹]	kon [15] [M⁻¹ s⁻¹]	IC50 [16] [pM]	further results
Ab23 (antibody, V domains shown, Humanized; also called h39G5VHv2/h71G4VKv1; h39G5VHv2/h71G4VKv1 hIgG1) VH: QVQLVQSGAEVKKPGSSVKVSCKASGYSFISYWIHWVRQAPGQGLEWMGIIDPSDSDTSLNQKFQGRVTITADESTSTAYMELSSLRSEDTAVYYCARSLDGYYDYWGQGTLVTVSS VL: DIQMTQSPSSLSASVGDRVTITCRTSENIYSYLAWYQQKPGKAPKLLIYFAKTLTDGVPSRFSGSGSGTDFTLTISSLQPEDFATYYCQHHYGTPWTFGQGTKVEIK	1100	170	240	830	1760	0.0812	1.61e-07	1.98e+06	1540	330	0.00708										koff [9]: 1.36e-08 s⁻¹; kon [9]: 1.93e+06 M⁻¹ s⁻¹
80D12 chimeric antibody (antibody, V domains shown) VH: QVQLKQSGPQLVRPGASVKISCKASGYSFTSYWMHWVKQRPGQGLEWIGMIDPSDSETTLNQKFKDKATLTVDKSSTTAYMQLSSPTSEDSAVYYCARSLDGYYDYWGQGTTLTVSS VL: DVQMIQSPASLSASVGETVTITCRTSENIYSYLAWYQQKQGKSPQLLVYFAKTLTDGVPSRFSGSGSGTQFSLKINSLQPEDFGSYYCQHHYGTPWTFGGGTKLEIK												44700	3840	210	350	2440	5.96	2.84e-05	4.77e+06	630	

Further lines, with some results ahead:

Inhibition of Cell Proliferation IC50 [1] [pM]	STAT5 signal inhibition IC50 [2] [pM]	EC50 [3] [pM]	EC50 [4] [pM]	IC50 [5] [pM]	Kd [6] [pM]	koff [6] [s⁻¹]	kon [6] [M⁻¹ s⁻¹]	IC50 [7] [pM]	IC50 [8] [pM]	Kd [9] [pM]	Inhibition IC50 of cell proliferation [10] [pM]	Inhibition IC50 of STAT5 reporter gene [11] [pM]	EC50 [12] [pM]	EC50 [13] [pM]	IC50 [14] [pM]	Kd [15] [pM]	koff [15] [s⁻¹]	kon [15] [M⁻¹ s⁻¹]	IC50 [16] [pM]	Binder	further results
2200	170	290	770	1800	0.064	1.07e-07	1.68e+06	1000	390	0.0421										Ab22 (antibody, V domains shown, Humanized; also called h39G5VHv1/h71G4VKv1; h39G5VHv1/h7IG4VKv1 hIgG1) VH: QVQLVQSGAEVKKPGSSVKVSCKASGYSFISYWIHWVRQAPGQGLEWMGIIDPSDSDTSLNQKFQGRVTLTVDKSSTTAYMELSSLRSEDTAVYYCARSLDGYYDYWGQGTLVTVSS VL: DIQMTQSPSSLSASVGDRVTITCRTSENIYSYLAWYQQKPGKAPKLLIYFAKTLTDGVPSRFSGSGSGTDFTLTISSLQPEDFATYYCQHHYGTPWTFGQGTKVEIK	koff [9]: 6.7e-08 s⁻¹; kon [9]: 1.59e+06 M⁻¹ s⁻¹
											12700	1670	320	600	1520	10	3.16e-05	3.15e+06	560	71G4 chimeric antibody (antibody, V domains shown) VH: QVQLQQSGAELVMPGASVKMSCKASGYTFTDYWMHWVKQRPGQGLEWIGTIDNSDSDTTYNQKFKGKVTLTVDESSSTAYMQLSSLTSEDSAVYYCARSVDGYLDYWGQGTTLTVSS VL: EIQMTQSPASLSASVGETVTITCRTSENIYSYLAWYQQKQGKSPQLLVYFAKTLTDGVPSRLSGSGSGTQFSLKINSLQPEDFGSYYCQHHYGTPWTFGGGTKLEIK	
											39100	3330	150	540	3420	9.5	4.6e-05	4.84e+06	1740	39G5-H8 chimeric antibody (antibody, V domains shown) VH: QVQLLQSGPQLVRPGASVKISCKASGYSFISYWIHWVKQRPGQGLEWIGIIDPSDSDTSLNQKFKDKATLTVDKSSTTAYIQLSSPTSEDSAVYYCARSLDGYYDYWGQGTTLTVSS VL: DIQMTQSPASLSASVGETVTITCRASENIYSYLAWYQQKQGKSPQLLVYNARTLPEGVPSRFSGSGSGTQFSLKINSLQPEDFGIYYCQHHYTTPWTFGGGTKLEIK	
